Results: patent publication US20230103563A1 (Sanofi, published 2023)

T1: human IL4 (IL004, Millipore) (human, UniProt P05112 25-153)
T1 construct: Bought protein, used as analyte in SPR; also called interleukin IL4
T1 sequence (looked up): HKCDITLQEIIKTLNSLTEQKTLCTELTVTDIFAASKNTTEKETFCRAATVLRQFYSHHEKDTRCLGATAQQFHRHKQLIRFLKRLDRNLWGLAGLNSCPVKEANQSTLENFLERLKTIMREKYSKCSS


Key:
[1] = target: T1, human IL4 (IL004, Millipore); assay: SPR (Biacore 3000), construct captured, IL4 as analyte; summary table
Description: (§1) Binding of antigens to the antibody constructs was measured using surface plasmon resonance (SPR) on a BIAcore 3000 instrument (GE Healthcare) with HBS-EP buffer (GE Healthcare). As antigens human IL4 (IL004, Millipore) and human IL13 (IL012, Millipore) were used. The capture antibody (human antibody capture kit, His capture kit, Fab capture kit, GE Life Sciences) was immobilized via primary amine groups (11000 RU) on a research grade CMS chip (GE Life Sciences) using standard procedures. […] The antigens human IL4 and human IL13 were used as analytes and injected for 240 sec with a dissociation time of 300 sec at a flow rate of 30 μL/min. IL4 and IL13 were used in a dilution series of 0.1 nM to 3 nM and 0.8 nM to 25 nM, respectively. Chip surfaces were regenerated with 2 min injects of the regeneration buffer provided with the capture kit. Sensorgrams were double referenced with a blank chip surface and HBS-EP buffer blanks. Recombinant human neonatal Fc-receptor (FcRn) protein was immobilized via primary amine groups (200 RU) in the sample flow cell compartment of a research grade CMS chip (GE Life Sciences) using standard procedures. The reference flow cell compartment was activated and deactivated without FcRn immobilization to generate a blank chip surface. For the analysis an assay buffer with pH 6.0 was used (150 mM NaCl, 20 mM Na-phosphate, 0.05% surfactant P20, pH6.0). The antibody was used as analyte at 800 nM dilution in assay buffer and injected over reference and sample flow cells for 240 sec with a dissociation time of 300 sec at a flow rate of 30 μL/min. Chip surfaces were regenerated with 2 min injects of HBS-EP buffer at 30 μl/min. Sensorgrams were double referenced with a the blank chip surface and HBS-EP buffer blanks. All data analysis was done using the BIAevaluation software v4.1.

[2] = target: T1, human IL4 (IL004, Millipore); assay: SPR (Biacore), variant captured with human antibody capture kit, IL4 as analyte
Description: as §1

[3] = target: T1, human IL4 (IL004, Millipore); assay: SPR (Biacore), variant captured with His-capture kit, IL4 as analyte
Description: as §1

| Binder | Kd [1] [pM] | Kd [2] [pM] | koff [2] [s⁻¹] | kon [2] [M⁻¹ s⁻¹] | Ka [3] [M⁻¹] | Kd [3] [pM] | koff [3] [s⁻¹] | kon [3] [M⁻¹ s⁻¹] |
| --- | --- | --- | --- | --- | --- | --- | --- | --- |
| protein variant (9), DVD-Split CH2 tetravalent bispecific antibody (bispecific antibody, human IgG4 S228P, kappa, variant (2) fused to an IgG Fc-domain) chain 1: DIVLTQSPASLAVSLGQRATISCRASESVDSYGQSYMHWYQQKAGQPPKLLIYLASNLESGVPARFSGSGSRTDFTLTIDPVQAEDAATYYCQQNAEDSRTFGGGTKLEIKGGGGSGGGGSDIQMTQSPASLSVSVGDTITLTCHASQNIDVWLSWFQQKPGNIPKLLIYKASNLHTGVPSRFSGSGSGTGFTLTISSLQPEDIATYYCQQAHSYPFTFGGGTKLEIKRTVAAPSVFIFPPSDEQLKSGTASVVCLLNNFYPREAKVQWKVDNALQSGNSQESVTEQDSKDSTYSLSSTLTLSKADYEKHKVYACEVTHQGLSSPVTKSFNRGECGGPSVFLFPPKPKDTLMISRTPEVTCVVVDVSHEDPEVKFNWYVDGVEVHN chain 2: not shown | 6.09 | 6.09 | 0.000108 | 1.77e+07 |  |  |  |  |
| protein variant (10), CODV-Split CH2 tetravalent bispecific antibody (bispecific antibody, human IgG4 S228P, kappa, variant (3) fused to an IgG Fc-domain) chain 1: DIVLTQSPASLAVSLGQRATISCRASESVDSYGQSYMHWYQQKAGQPPKLLIYLASNLESGVPARFSGSGSRTDFTLTIDPVQAEDAATYYCQQNAEDSRTFGGGTKLEIKGQPKAAPSDIQMTQSPASLSVSVGDTITLTCHASQNIDVWLSWFQQKPGNIPKLLIYKASNLHTGVPSRFSGSGSGTGFTLTISSLQPEDIATYYCQQAHSYPFTFGGGTKLEIKTKGPSVFRTVAAPSVFIFPPSDEQLKSGTASVVCLLNNFYPREAKVQWKVDNALQSGNSQESVTEQDSKDSTYSLSSTLTLSKADYEKHKVYACEVTHQGLSSPVTKSFNRGECGGPSVFLFPPKPKDTLMISRTPEVTCVVVDVSHEDPEVKFNWYVDGVEVHN chain 2: not shown | 0.222 | 0.222 | 0.000204 | 9.19e+08 |  |  |  |  |
| protein variant (7), Diabody Split CH2 (included) ("Splite") (bispecific antibody, Splite diabody with other linkers than variant (4); also called splite diabody) chain 1: DIVLTQSPASLAVSLGQRATISCRASESVDSYGQSYMHWYQQKAGQPPKLLIYLASNLESGVPARFSGSGSRTDFTLTIDPVQAEDAATYYCQQNAEDSRTFGGGTKLEIKGGPSVFLFPPKPKDTLMISRTPEVTCVVVDVSHEDPEVKFNWYVDGVEVHNDIQMTQSPASLSVSVGDTITLTCHASQNIDVWLSWFQQKPGNIPKLLIYKASNLHTGVPSRFSGSGSGTGFTLTISSLQPEDIATYYCQQAHSYPFTFGGGTKLEIK chain 2: EVQLKESGPGLVAPGGSLSITCTVSGFSLTDSSINWVRQPPGKGLEWLGMIWGDGRIDYADALKSRLSISKDSSKSQVFLEMTSLRTDDTATYYCARDGYFPYAMDFWGQGTSVTVSSGGGGSGGGGSGGGGSAKTKPREEQYNSTYRVVSVLTVLHQDWLNGKEYKCKVSNKALPAPIEKTISKAKGQPREQVQLQQSGPELVKPGASVKISCKASGYSFTSYWIHWIKQRPGQGLEWIGMIDPSDGETRLNQRFQGRATLTVDESTSTAYMQLRSPTSEDSAVYYCTRLKEYGNYDSFYFDVWGAGTLVTVSSHHHHHH | 68.5 |  |  |  | 1.46e+10 | 68.5 | 0.000232 | 3.38e+06 |
| protein variant (5), Diabody Split CH2 (included) ("Splite") (bispecific antibody, Splite diabody with other linkers than variant (4); also called splite diabody) chain 1: DIVLTQSPASLAVSLGQRATISCRASESVDSYGQSYMHWYQQKAGQPPKLLIYLASNLESGVPARFSGSGSRTDFTLTIDPVQAEDAATYYCQQNAEDSRTFGGGTKLEIKGGPSVFLFPPKPKDTLMISRTPEVTCVVVDVSHEDPEVKFNWYVDGVEVHNDIQMTQSPASLSVSVGDTITLTCHASQNIDVWLSWFQQKPGNIPKLLIYKASNLHTGVPSRFSGSGSGTGFTLTISSLQPEDIATYYCQQAHSYPFTFGGGTKLEIK chain 2: EVQLKESGPGLVAPGGSLSITCTVSGFSLTDSSINWVRQPPGKGLEWLGMIWGDGRIDYADALKSRLSISKDSSKSQVFLEMTSLRTDDTATYYCARDGYFPYAMDFWGQGTSVTVSSGGGAKTKPREEQYNSTYRVVSVLTVLHQDWLNGKEYKCKVSNKALPAPIEKTISKAKGQPREQVQLQQSGPELVKPGASVKISCKASGYSFTSYWIHWIKQRPGQGLEWIGMIDPSDGETRLNQRFQGRATLTVDESTSTAYMQLRSPTSEDSAVYYCTRLKEYGNYDSFYFDVWGAGTLVTVSSHHHHHH | 40.3 |  |  |  |  | 40.3 | 0.000165 | 4.1e+06 |
| protein variant (1), Diabody-added Split CH2 (diabody split CH2, anti-IL4/anti-IL13) (bispecific antibody, Two chains joined by the disulfide bond of the reassembled IgG1 split CH2 domain) chain 1: DIVLTQSPASLAVSLGQRATISCRASESVDSYGQSYMHWYQQKAGQPPKLLIYLASNLESGVPARFSGSGSRTDFTLTIDPVQAEDAATYYCQQNAEDSRTFGGGTKLEIKGGGSGGGGQVQLQQSGPELVKPGASVKISCKASGYSFTSYWIHWIKQRPGQGLEWIGMIDPSDGETRLNQRFQGRATLTVDESTSTAYMQLRSPTSEDSAVYYCTRLKEYGNYDSFYFDVWGAGTLVTVSSGGPSVFLFPPKPKDTLMISRTPEVTCVVVDVSHEDPEVKFNWYVDGVEVHN chain 2: DIQMTQSPASLSVSVGDTITLTCHASQNIDVWLSWFQQKPGNIPKLLIYKASNLHTGVPSRFSGSGSGTGFTLTISSLQPEDIATYYCQQAHSYPFTFGGGTKLEIKGGGSGGGGEVQLKESGPGLVAPGGSLSITCTVSGFSLTDSSINWVRQPPGKGLEWLGMIWGDGRIDYADALKSRLSISKDSSKSQVFLEMTSLRTDDTATYYCARDGYFPYAMDFWGQGTSVTVSSGGGGSGGGGSAKTKPREEQYNSTYRVVSVLTVLHQDWLNGKEYKCKVSNKALPAPIEKTISKAKGQPREHHHHHH | 16 |  |  |  | 6.24e+10 | 16 | 0.00117 | 7.32e+07 |

Further binders by falling Kd [1], results first:

| Kd [1] [pM] | Kd [2] [pM] | koff [2] [s⁻¹] | kon [2] [M⁻¹ s⁻¹] | Ka [3] [M⁻¹] | Kd [3] [pM] | koff [3] [s⁻¹] | kon [3] [M⁻¹ s⁻¹] | Binder |
| --- | --- | --- | --- | --- | --- | --- | --- | --- |
| 87.8 |  |  |  | 1.14e+10 | 87.8 | 0.000261 | 2.97e+06 | protein variant (6), Diabody Split CH2 (included) ("Splite") (bispecific antibody, Splite diabody with other linkers than variant (4); also called splite diabody) chain 1: DIVLTQSPASLAVSLGQRATISCRASESVDSYGQSYMHWYQQKAGQPPKLLIYLASNLESGVPARFSGSGSRTDFTLTIDPVQAEDAATYYCQQNAEDSRTFGGGTKLEIKGGPSVFLFPPKPKDTLMISRTPEVTCVVVDVSHEDPEVKFNWYVDGVEVHNGGGGSGGGGSGGGGSDIQMTQSPASLSVSVGDTITLTCHASQNIDVWLSWFQQKPGNIPKLLIYKASNLHTGVPSRFSGSGSGTGFTLTISSLQPEDIATYYCQQAHSYPFTFGGGTKLEIK chain 2: EVQLKESGPGLVAPGGSLSITCTVSGFSLTDSSINWVRQPPGKGLEWLGMIWGDGRIDYADALKSRLSISKDSSKSQVFLEMTSLRTDDTATYYCARDGYFPYAMDFWGQGTSVTVSSGGGAKTKPREEQYNSTYRVVSVLTVLHQDWLNGKEYKCKVSNKALPAPIEKTISKAKGQPREQVQLQQSGPELVKPGASVKISCKASGYSFTSYWIHWIKQRPGQGLEWIGMIDPSDGETRLNQRFQGRATLTVDESTSTAYMQLRSPTSEDSAVYYCTRLKEYGNYDSFYFDVWGAGTLVTVSSHHHHHH |
| 64.8 |  |  |  |  | 64.8 | 0.000224 | 3.46e+06 | protein variant (4), Diabody Split CH2 (included) ("Splite") (bispecific antibody, IgG1, Split IgG1 CH2 domain inserted between the variable domains; also called splite diabody) chain 1: DIVLTQSPASLAVSLGQRATISCRASESVDSYGQSYMHWYQQKAGQPPKLLIYLASNLESGVPARFSGSGSRTDFTLTIDPVQAEDAATYYCQQNAEDSRTFGGGTKLEIKGGPSVFLFPPKPKDTLMISRTPEVTCVVVDVSHEDPEVKFNWYVDGVEVHNGGGGSGGGGSGGGGSDIQMTQSPASLSVSVGDTITLTCHASQNIDVWLSWFQQKPGNIPKLLIYKASNLHTGVPSRFSGSGSGTGFTLTISSLQPEDIATYYCQQAHSYPFTFGGGTKLEIK chain 2: EVQLKESGPGLVAPGGSLSITCTVSGFSLTDSSINWVRQPPGKGLEWLGMIWGDGRIDYADALKSRLSISKDSSKSQVFLEMTSLRTDDTATYYCARDGYFPYAMDFWGQGTSVTVSSGGGGSGGGGSGGGGSAKTKPREEQYNSTYRVVSVLTVLHQDWLNGKEYKCKVSNKALPAPIEKTISKAKGQPREQVQLQQSGPELVKPGASVKISCKASGYSFTSYWIHWIKQRPGQGLEWIGMIDPSDGETRLNQRFQGRATLTVDESTSTAYMQLRSPTSEDSAVYYCTRLKEYGNYDSFYFDVWGAGTLVTVSSHHHHHH |
| 1.43 | 1.43 | 0.000135 | 9.49e+07 |  |  |  |  | protein variant (8), Diabody Split CH2 tetravalent bispecific antibody (bispecific antibody, human IgG4 S228P, variant (1) fused to an IgG Fc-domain) chain 1: DIVLTQSPASLAVSLGQRATISCRASESVDSYGQSYMHWYQQKAGQPPKLLIYLASNLESGVPARFSGSGSRTDFTLTIDPVQAEDAATYYCQQNAEDSRTFGGGTKLEIKGGGSGGGGQVQLQQSGPELVKPGASVKISCKASGYSFTSYWIHWIKQRPGQGLEWIGMIDPSDGETRLNQRFQGRATLTVDESTSTAYMQLRSPTSEDSAVYYCTRLKEYGNYDSFYFDVWGAGTLVTVSSGGPSVFLFPPKPKDTLMISRTPEVTCVVVDVSHEDPEVKFNWYVDGVEVHN chain 2: not shown |
